B1: ZBED2 (parent)
chain: RAGHHPNQYATCRLCGRQVSRGPG

Variants of: B1
Assay: protein stability index of a GFP-peptide fusion (GPS, HEK-293T) (PSI 1-6); higher = more stable
Conditions: c terminus: a fixed tail appended
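Also: lentivirally expressed fusions sorted by FACS into six bins by GFP to DsRed ratio, PSI derived from sequencing read proportions per bin multiplied by bin number.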

First: RAGHHPNQYATIRLCGRQVSRGPG [C12I]
Second: RAGHHPNQYATARLCGRQVSRGPG [C12A]
The protein stability index of the first is lower: 2.64 for the first, 3.19 for the second.

First: RAGHHPNQYATKRLCGRQVSRGPG [C12K]
Second: RAGHHPNQYATHRLCGRQVSRGPG [C12H]
The protein stability index of the first is lower: 2.4 for the first, 2.49 for the second.

Compared with RAGHHPNQYATPRLCGRQVSRGPG [C12P], RAGHHPNQYATMRLCGRQVSRGPG [C12M] is lower in protein stability index: 2.98 for the first, 2.28 for the second.

First: RAGHHPNQYATRRLCGRQVSRGPG [C12R]
Second: RAGHHPNQYATSRLCGRQVSRGPG [C12S]
The protein stability index of the first is lower: 3.2 for the first, 3.52 for the second.

Compared with RAGHHPNQYATFRLCGRQVSRGPG [C12F], RAGHHPNQYATGRLCGRQVSRGPG [C12G] is higher in protein stability index: 1.81 for the first, 3.16 for the second.

First: RAGHHPNQYATVRLCGRQVSRGPG [C12V]
Second: RAGHHPNQYATLRLCGRQVSRGPG [C12L]
The protein stability index of the first is higher: 2.49 for the first, 2.27 for the second.

First: RAGHHPNQYATERLCGRQVSRGPG [C12E]
Second: RAGHHPNQYATDRLCGRQVSRGPG [C12D]
The protein stability index of the first is higher: 3.66 for the first, 2.88 for the second.

Compared with RAGHHPNQYATTRLCGRQVSRGPG [C12T], RAGHHPNQYATQRLCGRQVSRGPG [C12Q] is lower in protein stability index: 3.19 for the first, 3.12 for the second.

First: RAGHHFNQYATCRLCGRQVSRGPG [P6F]
Second: RAGHHSNQYATCRLCGRQVSRGPG [P6S]
The protein stability index of the first is lower: 1.33 for the first, 1.72 for the second.

Compared with RAGHHDNQYATCRLCGRQVSRGPG [P6D], RAGHHGNQYATCRLCGRQVSRGPG [P6G] is higher in protein stability index: 2.02 for the first, 2.54 for the second.

Compared with RAGHHINQYATCRLCGRQVSRGPG [P6I], RAGHHYNQYATCRLCGRQVSRGPG [P6Y] is lower in protein stability index: 1.45 for the first, 1.02 for the second.

Compared with RAGHHNNQYATCRLCGRQVSRGPG [P6N], RAGHHRNQYATCRLCGRQVSRGPG [P6R] is higher in protein stability index: 1.72 for the first, 1.83 for the second.

Going from RAGHHHNQYATCRLCGRQVSRGPG [P6H] to RAGHIPNQYATCRLCGRQVSRGPG [H5I], the protein stability index falls from 2.31 to 2.27.

Compared with RAGHMPNQYATCRLCGRQVSRGPG [H5M], RAGHEPNQYATCRLCGRQVSRGPG [H5E] is higher in protein stability index: 2.41 for the first, 3.69 for the second.

Going from RAGHYPNQYATCRLCGRQVSRGPG [H5Y] to RAGHGPNQYATCRLCGRQVSRGPG [H5G], the protein stability index falls from 2.37 to 1.68.

First: RAGHCPNQYATCRLCGRQVSRGPG [H5C]
Second: RAGHDPNQYATCRLCGRQVSRGPG [H5D]
The protein stability index of the first is lower: 1.93 for the first, 3.27 for the second.

Going from RAGHTPNQYATCRLCGRQVSRGPG [H5T] to RAGHLPNQYATCRLCGRQVSRGPG [H5L], the protein stability index rises from 1.37 to 1.86.

First: RAGHKPNQYATCRLCGRQVSRGPG [H5K]
Second: RAGHAPNQYATCRLCGRQVSRGPG [H5A]
The protein stability index of the first is higher: 2.51 for the first, 2.48 for the second.

Compared with RAGHQPNQYATCRLCGRQVSRGPG [H5Q], RAGHNPNQYATCRLCGRQVSRGPG [H5N] is higher in protein stability index: 2.16 for the first, 2.5 for the second.

First: RAGHFPNQYATCRLCGRQVSRGPG [H5F]
Second: RAGHHPNQYATCRLCGDQVSRGPG [R17D]
The protein stability index of the first is lower: 1.89 for the first, 2.96 for the second.

Going from RAGHHPNQYATCRLCGKQVSRGPG [R17K] to RAGHHPNQYATCRLCGLQVSRGPG [R17L], the protein stability index falls from 3.01 to 2.64.

First: RAGHHPNQYATCRLCGQQVSRGPG [R17Q]
Second: RAGHHPNQYATCRLCGFQVSRGPG [R17F]
The protein stability index of the first is lower: 1.3 for the first, 1.96 for the second.

Compared with RAGHHPNQYATCRLCGIQVSRGPG [R17I], RAGHHPNQYATCRLCGEQVSRGPG [R17E] is higher in protein stability index: 1.86 for the first, 1.93 for the second.

Going from RAGHHPNQYATCRLCGVQVSRGPG [R17V] to RAGHHPNQYATCRLCGNQVSRGPG [R17N], the protein stability index falls from 1.49 to 1.31.

First: RAGHHPNQYATCRLCGCQVSRGPG [R17C]
Second: RAGHHPNQYATCRLCGHQVSRGPG [R17H]
The protein stability index of the first is higher: 1.91 for the first, 1.29 for the second.

Going from RAGHHPNQYATCRLCGAQVSRGPG [R17A] to RAGHHPNQYATCRLCGTQVSRGPG [R17T], the protein stability index rises from 1.69 to 2.26.

Going from RAGHHPNQYATCRLCGSQVSRGPG [R17S] to RAGHHPNQYARCRLCGRQVSRGPG [T11R], the protein stability index rises from 1.79 to 2.01.

Going from RAGHHPNQYAYCRLCGRQVSRGPG [T11Y] to RAGHHPNQYAMCRLCGRQVSRGPG [T11M], the protein stability index rises from 3.09 to 3.7.

Going from RAGHHPNQYAFCRLCGRQVSRGPG [T11F] to RAGHHPNQYAICRLCGRQVSRGPG [T11I], the protein stability index falls from 3.34 to 2.27.

Going from RAGHHPNQYANCRLCGRQVSRGPG [T11N] to RAGHHPNQYASCRLCGRQVSRGPG [T11S], the protein stability index falls from 1.97 to 1.5.

Going from RAGHHPNQYAECRLCGRQVSRGPG [T11E] to RAGHHPNQYALCRLCGRQVSRGPG [T11L], the protein stability index falls from 2.84 to 1.7.

Compared with RAGHHPNQYAKCRLCGRQVSRGPG [T11K], RAGHHPKQYATCRLCGRQVSRGPG [N7K] is lower in protein stability index: 2.56 for the first, 1.81 for the second.

First: RAGHHPFQYATCRLCGRQVSRGPG [N7F]
Second: RAGHHPMQYATCRLCGRQVSRGPG [N7M]
The protein stability index of the first is lower: 1.08 for the first, 2.04 for the second.

First: RAGHHPAQYATCRLCGRQVSRGPG [N7A]
Second: RAGHHPYQYATCRLCGRQVSRGPG [N7Y]
The protein stability index of the first is lower: 1.78 for the first, 2.9 for the second.

Compared with RAGHHPPQYATCRLCGRQVSRGPG [N7P], RAGHHPEQYATCRLCGRQVSRGPG [N7E] is higher in protein stability index: 1.56 for the first, 2.52 for the second.

Compared with RAGHHPLQYATCRLCGRQVSRGPG [N7L], RAGHHPSQYATCRLCGRQVSRGPG [N7S] is lower in protein stability index: 2.67 for the first, 1.88 for the second.

First: RAGHHPRQYATCRLCGRQVSRGPG [N7R]
Second: RAGHHPNQYATCRLSGRQVSRGPG [C15S]
The protein stability index of the first is lower: 1.46 for the first, 2.34 for the second.

First: RAGHHPNQYATCRLDGRQVSRGPG [C15D]
Second: RAGHHPNQYATCRLFGRQVSRGPG [C15F]
The protein stability index of the first is higher: 3.55 for the first, 1.7 for the second.

First: RAGHHPNQYATCRLLGRQVSRGPG [C15L]
Second: RAGHHPNQYATCRLGGRQVSRGPG [C15G]
The protein stability index of the first is lower: 1.85 for the first, 2.6 for the second.

First: RAGHHPNQYATCRLVGRQVSRGPG [C15V]
Second: RAGHHPNQYATCRLHGRQVSRGPG [C15H]
The protein stability index of the first is higher: 2.2 for the first, 1.93 for the second.

Going from RAGHHPNQYATCRLTGRQVSRGPG [C15T] to RAGHHPNQYATCRLAGRQVSRGPG [C15A], the protein stability index falls from 3.44 to 1.4.

First: RAGHHPNQYATCRLIGRQVSRGPG [C15I]
Second: RAGHHPNQYATCRLKGRQVSRGPG [C15K]
The protein stability index of the first is lower: 1.95 for the first, 3.16 for the second.

Going from RAGHHPNQYATCRLPGRQVSRGPG [C15P] to RAGHHPNQYATCRLNGRQVSRGPG [C15N], the protein stability index falls from 3.18 to 2.19.

First: RAGHHPNQYATCRLRGRQVSRGPG [C15R]
Second: RAGHHPNQYATCRLYGRQVSRGPG [C15Y]
The protein stability index of the first is higher: 2.83 for the first, 1.42 for the second.

Going from RAGHHPNSYATCRLCGRQVSRGPG [Q8S] to RAGHHPNIYATCRLCGRQVSRGPG [Q8I], the protein stability index rises from 1.05 to 1.57.

Going from RAGHHPNFYATCRLCGRQVSRGPG [Q8F] to RAGHHPNPYATCRLCGRQVSRGPG [Q8P], the protein stability index falls from 2.11 to 2.03.

Compared with RAGHHPNEYATCRLCGRQVSRGPG [Q8E], RAGHHPNHYATCRLCGRQVSRGPG [Q8H] is lower in protein stability index: 3.47 for the first, 1.9 for the second.

From the supplement of paper PMC10567573
